Data reported in patent US20030162205, “Novel transcription factor having zinc finger domain” (published 2003).

Experiments:
Sp1 [1] = target: T1, Sp1 (UniProt P08047 P08047:2-785); experiment: competition; unlabeled mutant competitor had no effect on complex with GC-box
From the text: (§1) Sp1 is known to bind to a GC-box through its three zinc finger domains. The m285 cloned in the present invention has three zinc finger domains that share a very high homology with the Sp family, and therefore the protein was expected to bind to a GC-box. Thus, 285F, 285N, and 285C were expressed as GST fusion proteins in E. coli to examine their binding to a GC-box. GST fusion proteins purified with glutathione Sepharose, and as the GC box a DNA probe having the nucleotide sequence in the Waf-1 promoter region which sequence binds to Sp1 were used. DNA probe was prepared by labeling ds-(5′-TCGAAAGGAGGCGGGACCCGAGCT-3′/SEQ ID NO: 25) containing a GC-box sequence with 33-P. The DNA probe was reacted with GST-285F, GST-285N, and GST-285C described above in EMSA buffer (20 mM HEPES, 40 mM KCl, 6 MM MgCl₂, 1 mM EGTA, 1 mM DTT, 0.1% NP-40, 10% Glycerol, 0.15% BSA, 25 ng/μl sonicated salmon sperm DNA) for 20 minutes. To examine the presence of competitive inhibition, either an unlabeled GC-box DNA probe or unlabeled mutant GC-box DNA probe (ds-(5′-TCGAAAGGAGTTTTGACCCGGAGCT-3′/SEQ ID NO: 26)) was further added to a similar reaction system. Recombinant Sp1 was used as a positive control. The reactants were electrophoresed on 5% acrylamide gel and were exposed to imaging plates. Analyses were performed using BAS2000 imaging analyzer.
(§2) As a result of gel shift assay, bands that were considered to correspond to DNA-protein complex were observed when GST-285F, GST-285C, or recombinant Sp1 were reacted with the 33-P labeled GC-box DNA probe (FIG. 9; lanes 1, 4, and 9). No complex b and could be observed for GST-285N reacted with the GC-box DNA probe (FIG. 9; lane 7). The addition of unlabeled GC-box DNA probe vanished or decreased the complex bands of GST-285F, GST-285C, or recombinant Sp1, and the GC-box DNA probe (FIG. 9; lanes 2, 5, and 10). Further, the addition of unlabeled mutant GC-box DNA probe to a similar reaction system had no effect on the complex bands of GST-285F, GST-285C, or recombinant Sp1, and the GC-box DNA probe (FIG. 9; lanes 3, 6, and 11).

[2] = target: T2, GST-285F (m285 full length) (Mus musculus, UniProt Q9JHX2 SEQ:1-398); experiment: as above; conditions: tags: GST N-terminal (pGEX 4T-3)
From the text: as §1, §2

[3] = target: T3, GST-285C (m285 C-terminal, three zinc fingers) (Mus musculus, UniProt Q9JHX2 SEQ:271-398); experiment: as above; conditions: tags: GST N-terminal (pGEX 4T-3)
From the text: as §1, §2

[4] = target: T3, GST-285C (m285 C-terminal, three zinc …); experiment: EMSA; same buffer; competed by unlabeled GC-box; conditions: tags: GST N-terminal (pGEX 4T-3); label: 33P
From the text: as §1, with “analyzer. […]” for “analyzer.”

Sp1 [5] = target: T1, Sp1; experiment: EMSA; positive control; competed by unlabeled GC-box; conditions: label: 33P
From the text: as §1, with “analyzer. […]” for “analyzer.”

[6] = target: GST-285N (m285 N-terminal) (Mus musculus, UniProt Q9JHX2 SEQ:1-278); experiment: EMSA; no complex; lacks zinc fingers; conditions: tags: GST N-terminal (pGEX 4T-3); label: 33P
From the text: as §1, with “analyzer. […]” for “analyzer.”

[7] = target: T2, GST-285F (m285 full length); experiment: EMSA; 20 mM HEPES, 40 mM KCl, 6 mM MgCl2, salmon sperm DNA; competed by unlabeled GC-box; conditions: tags: GST N-terminal (pGEX 4T-3); label: 33P
From the text: as §1, with “analyzer. […]” for “analyzer.”

T2 sequence (Q9JHX2 whole entry): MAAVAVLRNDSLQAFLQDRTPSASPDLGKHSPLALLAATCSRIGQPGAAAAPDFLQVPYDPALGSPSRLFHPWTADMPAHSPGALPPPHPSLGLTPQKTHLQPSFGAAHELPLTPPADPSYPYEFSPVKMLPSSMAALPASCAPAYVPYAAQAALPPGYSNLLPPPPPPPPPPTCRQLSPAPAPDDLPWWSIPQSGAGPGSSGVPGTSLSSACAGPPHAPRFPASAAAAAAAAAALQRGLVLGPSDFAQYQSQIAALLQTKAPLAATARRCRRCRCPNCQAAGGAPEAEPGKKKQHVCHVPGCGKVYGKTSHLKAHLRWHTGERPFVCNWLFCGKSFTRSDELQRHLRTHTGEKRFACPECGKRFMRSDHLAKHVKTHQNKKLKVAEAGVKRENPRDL
T3 sequence (Q9JHX2 271-398): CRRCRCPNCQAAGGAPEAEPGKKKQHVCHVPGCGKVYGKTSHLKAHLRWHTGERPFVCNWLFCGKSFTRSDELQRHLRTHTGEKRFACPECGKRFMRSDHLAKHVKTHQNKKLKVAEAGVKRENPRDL
T1 sequence (P08047 2-785, one chain of several): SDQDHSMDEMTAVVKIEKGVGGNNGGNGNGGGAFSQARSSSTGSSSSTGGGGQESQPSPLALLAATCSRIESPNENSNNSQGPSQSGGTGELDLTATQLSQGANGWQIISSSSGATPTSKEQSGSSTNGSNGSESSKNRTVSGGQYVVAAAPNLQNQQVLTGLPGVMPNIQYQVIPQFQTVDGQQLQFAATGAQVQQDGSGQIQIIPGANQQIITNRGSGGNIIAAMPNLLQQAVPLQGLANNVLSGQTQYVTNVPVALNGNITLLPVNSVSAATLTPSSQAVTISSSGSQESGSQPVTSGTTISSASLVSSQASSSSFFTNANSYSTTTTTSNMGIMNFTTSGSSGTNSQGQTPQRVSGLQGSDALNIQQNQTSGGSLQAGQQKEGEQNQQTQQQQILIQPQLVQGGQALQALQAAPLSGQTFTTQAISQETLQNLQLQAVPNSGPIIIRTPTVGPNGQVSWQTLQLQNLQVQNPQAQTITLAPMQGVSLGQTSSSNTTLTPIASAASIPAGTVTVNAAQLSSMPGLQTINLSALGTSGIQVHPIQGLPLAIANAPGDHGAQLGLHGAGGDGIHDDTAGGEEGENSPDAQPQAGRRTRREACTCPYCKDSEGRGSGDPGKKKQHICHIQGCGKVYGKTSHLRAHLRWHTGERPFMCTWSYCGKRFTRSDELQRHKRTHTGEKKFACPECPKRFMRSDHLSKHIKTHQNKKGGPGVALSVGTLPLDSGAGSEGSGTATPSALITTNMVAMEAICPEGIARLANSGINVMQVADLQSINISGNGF
Sequence of GST-285N (m285 N-terminal) (Q9JHX2 1-278): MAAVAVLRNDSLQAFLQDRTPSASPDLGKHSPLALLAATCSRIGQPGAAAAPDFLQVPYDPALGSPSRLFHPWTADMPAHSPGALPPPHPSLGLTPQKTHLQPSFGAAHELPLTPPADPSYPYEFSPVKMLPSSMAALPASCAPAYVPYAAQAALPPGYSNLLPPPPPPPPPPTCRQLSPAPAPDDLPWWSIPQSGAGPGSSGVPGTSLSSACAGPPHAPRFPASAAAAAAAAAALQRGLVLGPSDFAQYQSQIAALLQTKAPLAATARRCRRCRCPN

| Binder | binding result (Sp1 [1]) | binding result [2] | binding result [3] | binding result [4] | binding result (Sp1 [5]) | binding result [6] | binding result [7] |
| --- | --- | --- | --- | --- | --- | --- | --- |
| mutant GC-box (dsDNA) DNA 1: TCGAAAGGAGTTTTGACCCGGAGCT DNA 2: AGCTCCGGGTCAAAACTCCTTTCGA | no binding | no binding | no binding |  |  |  |  |
| Waf-1 promoter GC-box probe (dsDNA) DNA 1: TCGAAAGGAGGCGGGACCCGAGCT DNA 2: AGCTCGGGTCCCGCCTCCTTTCGA |  |  |  | binds | binds | no binding | binds |
